Experimental data taken from US20230374071A1, “COMPOSITIONS FOR INDUCING URINARY VOIDING AND DEFECATION” (Dignify Therapeutics, LLC, priority 2020, published 2023).
In brackets after ≈: the same amount, converted by molar mass. Entries after “also recorded” stand apart in the source; their conditions may differ. Starred links: 1 amine or outer side, 2 acyl side, 3 side chain; linkers in the order of their positions; H or OH if unused. Non-standard residues stand in square brackets, D forms with d. Residues, ends and D or L forms follow the SMILES beside them. No end group written: not given here. gc = gamma constrained Gly-(R-gamma-lactam)-Leu moiety, (S)-2-((R)-3-amino)-2-oxopyrrolidin-1-yl)-4-methylpentanoyl, between Val and the C-terminal residue, CC(C)C[C@@H](C(=O)[*:2])N1CC[C@@H](N[*:1])C1=O; Nle = CCCC[C@H](N)C(=O)O; βAla = NCCC(=O)O

T1: human NK2 receptor (hNK2R) (Homo sapiens, UniProt P21452)
T1 construct: expressed in transfected cells; host or cells: CHO (CHO-hNK2)
T1 sequence (P21452 1-398): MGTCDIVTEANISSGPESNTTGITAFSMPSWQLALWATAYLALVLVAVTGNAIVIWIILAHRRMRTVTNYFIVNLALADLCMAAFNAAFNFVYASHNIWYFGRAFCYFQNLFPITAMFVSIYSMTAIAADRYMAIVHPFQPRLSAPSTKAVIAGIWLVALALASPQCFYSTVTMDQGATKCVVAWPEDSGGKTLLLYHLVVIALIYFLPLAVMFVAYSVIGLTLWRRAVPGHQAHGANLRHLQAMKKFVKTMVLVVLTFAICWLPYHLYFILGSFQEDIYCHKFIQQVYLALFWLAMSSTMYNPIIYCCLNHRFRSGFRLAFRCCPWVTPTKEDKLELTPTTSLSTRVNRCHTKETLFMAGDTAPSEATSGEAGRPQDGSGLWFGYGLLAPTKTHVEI

T2: human neurokinin 2 receptor (human, UniProt P21452 1-398)
T2 sequence (looked up): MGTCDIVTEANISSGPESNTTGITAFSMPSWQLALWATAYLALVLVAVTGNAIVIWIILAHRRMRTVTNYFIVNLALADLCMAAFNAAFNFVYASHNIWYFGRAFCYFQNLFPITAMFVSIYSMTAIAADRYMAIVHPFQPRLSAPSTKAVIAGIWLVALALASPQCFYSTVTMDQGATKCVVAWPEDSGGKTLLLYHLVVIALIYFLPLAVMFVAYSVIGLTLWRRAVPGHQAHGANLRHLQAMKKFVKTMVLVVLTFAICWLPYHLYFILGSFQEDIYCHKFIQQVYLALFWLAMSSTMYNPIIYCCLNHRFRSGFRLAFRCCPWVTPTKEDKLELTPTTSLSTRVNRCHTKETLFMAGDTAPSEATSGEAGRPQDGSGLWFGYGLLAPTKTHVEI


How the values were obtained:
[1] = biological target: T1, human NK2 receptor (hNK2R); assay: Intracellular calcium mobilization (Fluo-4 AM, FLIPR) in CHO cells expressing recombinant hNK2R; format: cell-based; conditions: for EC50: calcium mobilization, CHO-hNK2 cells, agonist potency, read-out: hNK2R pEC50 (converted)
Experimental: (§1) Intracellular Calcium Mobilization: The agonist efficacy of compounds A-J at recombinant hNK2R or hNK1Rs expressed in CHO cells was assessed by measuring intracellular calcium mobilization using the calcium-sensitive dye Fluo-4 AM (MOLECULAR PROBES, EUGENE, OR, USA) and a Fluorometric Imaging Plate Reader (FLIPR, MOLECULAR DEVICES, CA, USA). CHO-hNK1 and CHO-hNK2 cells were seeded into black walled clear-bottom 384-well plates) at a density of 10,000 and 15,000 cells per well in 50 μL culture media, respectively, and grown overnight at 37° C. in a humidified CO2-incubator. Cells were washed in washing buffer using a Microplate Washer BIOTEK 384 instrument, leaving 20 μL of buffer per well after the final aspiration. Cells were then incubated at 37° C. with the cytoplasmic Ca^2+ indicator Fluo-4 AM at 2 μM in assay buffer containing 2.5 mM probenecid and 0.02% Pluronic F-127 for 45-60 min (cell loading). Cells were then washed 3 times in washing buffer using a Microplate Washer BIOTEK 384 instrument, leaving 30 μL of buffer in each well after the last wash. Loaded cell plates were transferred to the FLIPR Tetra instrument and calcium responses monitored as described below. A dual read-out FLIPR protocol was used, allowing for characterization of both agonist and antagonist profiles. For quality control, in each compound plate the signal was monitored by evaluating the responses to the reference standards (NKA and Substance P).
(§2) Twelve concentrations of each of the compounds A-J were evaluated for their ability to increase intracellular calcium levels with respect to the agonist reference standard (NKA or Substance P), and the pEC50 value was calculated. […] Concentration response curves of compounds were run in duplicate on two different occasions from the same stock solutions. Test solutions were prepared from 10 mM stock solutions in DMSO and 1 μL of each solution was stamped into V-bottom assay plates containing 49 μL assay buffer. The final concentration of DMSO was 0.5% in each well.
(§3) The results of the intracellular calcium mobilization by in vitro activation of recombinant hNK2Rs or hNK1Rs expressed in CHO cells as described above for the 10 peptide analogs A-J, is shown in Table 3 below. In addition, FIGS. 3A-3C are exemplary graphs showing stimulation of [Ca^2+] response in CHO cells expressing human NK2 or NK1 receptors by Compound A, Compound B, and Compound G, respectively. In FIGS. 3A-3C, data are expressed as % of the maximal response to substance P for NK1 receptors, or NKA for NK2 receptors. Each data point is the mean±SD from duplicate determinations.

[2] = biological target: T3, human NK1 receptor (hNK1R) (Homo sapiens, UniProt P25103); assay: Intracellular calcium mobilization (Fluo-4 AM, FLIPR) in CHO cells expressing recombinant hNK1R; format: cell-based; conditions: for EC50: calcium mobilization, CHO-hNK1 cells, agonist potency, read-out: hNK1R pEC50 (converted)
T3 construct: expressed in transfected cells; host or cells: CHO (CHO-hNK1)
Experimental: as §1, §2, §3

[3] = Aqueous solubility of lyophilized peptide analogs (observed dissolution in Dulbecco's phosphate buffered saline and water); format: physicochemical; conditions: observed dissolution in both Dulbecco's phosphate buffered saline and water; 5 mg/mL was the maximum tested
Experimental: Peptide analogs of NKA were purified to ≥95% purity. […] Compounds A, B, H, and J (SEQ ID NO: 1, 2, 8, and 10) were considered to be aqueous insoluble (<0.1 mg/mL). *Aqueous solubilities of the lyophilized peptide analogs were determined based on the observed dissolution in both Dulbecco's phosphate buffered saline and water. gc=Gly-(R-gamma-lactam)-Leu or (S)-2-((R)-3-amino)-2-oxopyrrolidin-1-yl)-4-methylpantanoyl.

[4] = biological target: T4, human neurokinin 1 receptor (human, UniProt P25103 1-407); assay: cell-based or functional assay
[5] = biological target: T2, human neurokinin 2 receptor; assay: cell-based or functional assay
[6] = biological target: T4, human neurokinin 1 receptor; assay: cell-based or functional assay; remark: listed apart in the source
[7] = biological target: T2, human neurokinin 2 receptor; assay: cell-based or functional assay; remark: listed apart in the source
[8] = tested at concentrations up to 10 μM

T4 sequence (P25103 whole entry): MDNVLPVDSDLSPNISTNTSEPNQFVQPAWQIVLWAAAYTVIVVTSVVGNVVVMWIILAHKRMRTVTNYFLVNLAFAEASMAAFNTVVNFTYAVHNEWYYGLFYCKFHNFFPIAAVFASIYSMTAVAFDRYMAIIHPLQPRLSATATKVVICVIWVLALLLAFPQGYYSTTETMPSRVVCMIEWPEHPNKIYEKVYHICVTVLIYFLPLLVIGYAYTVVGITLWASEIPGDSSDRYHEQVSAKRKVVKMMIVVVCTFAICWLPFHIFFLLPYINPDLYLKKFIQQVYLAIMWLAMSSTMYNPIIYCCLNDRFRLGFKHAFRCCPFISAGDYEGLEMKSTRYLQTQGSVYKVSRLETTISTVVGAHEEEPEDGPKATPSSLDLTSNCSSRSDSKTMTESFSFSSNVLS
T3 sequence (P25103 whole entry): as above

Row | Molecule | EC50 [1] [nM] | EC50 [2] [nM] | solubility [3] [µg/mL] | hNK1R pEC50 (intracellular calcium mobilization, FLIPR, CHO cells) [4] | hNK2R pEC50 (intracellular calcium mobilization, FLIPR, CHO cells) [5] | other results
1 | CSCC[C@H](NC(=O)[C@H](CC(C)C)N1CC[C@@H](NC(=O)[C@@H](NC(=O)[C@H](Cc2ccccc2)NC(=O)[C@H](CCCCN)NC(=O)[C@@H](N)CC(=O)O)C(C)C)C1=O)C(N)=O [Compound C, Asp-Lys-Phe-Val-gc-Met-NH2] | 0.427 | 53.7 | 5000 (≈ 5.99 mM) | – | – | –
2 | XDSFVM (gc = Gly-(R-gamma-lactam)-Leu, (S)-2-((R)-3-amino)-2-oxopyrrolidin-1-yl)-4-methylpantanoyl moiety, between Val and Met; C-terminal amide (Met-NH2)) [Compound A (Asp-Ser-Phe-Val-gc-Met-NH2)] | – | – | – | 6.31 | 9.17 | NK2R/NK1R selectivity ratio [5]: 724 fold; maximal calcium response [6]: ≥ 85 % maximal response compared to Substance P; maximal calcium response [7]: ≥ 85 % maximal response compared to Neurokinin A
3 | DKFV[gc][Nle]-NH2 (N-terminus assumed; SMILES CCCC[C@H](NC(=O)[C@H](CC(C)C)N1CC[C@@H](NC(=O)[C@@H](NC(=O)[C@H](Cc2ccccc2)NC(=O)[C@H](CCCCN)NC(=O)[C@@H](N)CC(=O)O)C(C)C)C1=O)C(N)=O) [Compound D (Asp-Lys-Phe-Val-gc-Nle-NH2)] | – | – | – | 6.32 | 8.44 | NK2R/NK1R selectivity ratio [5]: 132 fold; maximal calcium response [6]: ≥ 85 % maximal response compared to Substance P; maximal calcium response [7]: ≥ 85 % maximal response compared to Neurokinin A

Now from value to molecule, other results behind:

Row | EC50 [1] [nM] | EC50 [2] [nM] | solubility [3] [µg/mL] | hNK1R pEC50 (intracellular calcium mobilization, FLIPR, CHO cells) [4] | hNK2R pEC50 (intracellular calcium mobilization, FLIPR, CHO cells) [5] | Molecule | other results
4 | 3.63 | 479 | 5000 (≈ 6.13 mM) | – | – | CCCC[C@H](NC(=O)[C@H](CC(C)C)N1CC[C@@H](NC(=O)[C@@H](NC(=O)[C@H](Cc2ccccc2)NC(=O)[C@H](CCCCN)NC(=O)[C@@H](N)CC(=O)O)C(C)C)C1=O)C(N)=O [Compound D, Asp-Lys-Phe-Val-gc-Nle-NH2] | –
5 | > 10000 | > 10000 | < 100 | – | – | CCCC[C@H](NC(=O)[C@H](CC(C)C)NC(=O)CCNC(=O)[C@@H](NC(=O)[C@H](Cc1ccccc1)NC(=O)[C@H](CO)NC(=O)[C@@H](N)CC(=O)O)C(C)C)C(N)=O [H, Asp-Ser-Phe-Val-(β-Ala)-Leu-Nle-NH2] (H-DSFV[βAla]L[Nle]-NH2; N-terminus assumed) | selectivity for activation of hNK2Rs vs hNK1Rs ([1]; from ratios of EC50s): did not exhibit selectivity for hNK2Rs; also recorded: do not exhibit selectivity for hNK2Rs; calcium response at hNK2R [1, 8]: did not elicit a significant calcium response; also recorded: do not elicit a significant calcium response; calcium response at hNK1R [2, 8]: did not elicit a significant calcium response; also recorded: do not elicit a significant calcium response; Aqueous solubility [3]: <100 µg/mL
6 | – | – | – | < 5 | < 5 | KDSFV[βAla]LM-NH2 (N-terminus assumed; SMILES CSCC[C@H](NC(=O)[C@H](CC(C)C)NC(=O)CCNC(=O)[C@@H](NC(=O)[C@H](Cc1ccccc1)NC(=O)[C@H](CO)NC(=O)[C@H](CC(=O)O)NC(=O)[C@@H](N)CCCCN)C(C)C)C(N)=O) [Compound I (Lys-Asp-Ser-Phe-Val-(β-Ala)-Leu-Met-NH2)] | –
7 | – | – | – | < 5 | < 5 | DSFV[βAla]L[Nle]-NH2 (N-terminus assumed; SMILES CCCC[C@H](NC(=O)[C@H](CC(C)C)NC(=O)CCNC(=O)[C@@H](NC(=O)[C@H](Cc1ccccc1)NC(=O)[C@H](CO)NC(=O)[C@@H](N)CC(=O)O)C(C)C)C(N)=O) [Compound H (Asp-Ser-Phe-Val-(β-Ala)-Leu-Nle-NH2)] | –
